Data on five molecules can be found in US20250092160A1 (published 2025).

For assay [1], the target named is T1, CD64 FcRγI (human, UniProt P12314 16-288).
For assay [2], the target named is T2, CD32a 131H FcRγIIa (human, UniProt P12318 36-218).
T2 sequence (looked up): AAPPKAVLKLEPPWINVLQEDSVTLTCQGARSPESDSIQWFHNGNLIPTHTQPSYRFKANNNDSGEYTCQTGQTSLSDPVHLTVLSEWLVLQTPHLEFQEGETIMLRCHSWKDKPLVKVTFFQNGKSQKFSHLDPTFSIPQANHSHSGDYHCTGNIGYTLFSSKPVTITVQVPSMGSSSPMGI

The target in assay [3] is T3, CD32b/c FcRγIIb (human, UniProt P31994 46-217).
T3 sequence (looked up): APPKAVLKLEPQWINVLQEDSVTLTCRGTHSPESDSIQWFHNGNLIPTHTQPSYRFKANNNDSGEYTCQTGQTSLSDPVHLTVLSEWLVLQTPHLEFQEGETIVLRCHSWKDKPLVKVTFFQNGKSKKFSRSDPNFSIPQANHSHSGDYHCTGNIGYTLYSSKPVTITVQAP

The target of assay [4] is T4, CD32a 131R FcRγIIa (human, UniProt P12318 36-218).
T4 sequence (looked up): T2 sequence (looked up) with H132R

In assay [5] the target is T5, CD16a 158V FcRγIIIa (human, UniProt P08637 17-208).
T5 sequence (P08637 17-208 F176V limits assumed): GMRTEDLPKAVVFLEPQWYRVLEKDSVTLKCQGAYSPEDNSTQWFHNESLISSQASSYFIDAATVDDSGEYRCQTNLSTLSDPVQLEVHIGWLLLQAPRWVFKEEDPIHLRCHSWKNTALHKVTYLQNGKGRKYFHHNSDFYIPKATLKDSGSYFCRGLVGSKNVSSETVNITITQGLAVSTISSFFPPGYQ
Assay [6] has as its target CD16b FcRγIIIb (human, UniProt O75015 20-208).
In assay [7] the target is T6, Recombinant CD19 (ACROBiosystems Cat #CD9-H52H2) (UniProt P15391 20-291).
T6 construct: also called monovalent CD19
T6 sequence: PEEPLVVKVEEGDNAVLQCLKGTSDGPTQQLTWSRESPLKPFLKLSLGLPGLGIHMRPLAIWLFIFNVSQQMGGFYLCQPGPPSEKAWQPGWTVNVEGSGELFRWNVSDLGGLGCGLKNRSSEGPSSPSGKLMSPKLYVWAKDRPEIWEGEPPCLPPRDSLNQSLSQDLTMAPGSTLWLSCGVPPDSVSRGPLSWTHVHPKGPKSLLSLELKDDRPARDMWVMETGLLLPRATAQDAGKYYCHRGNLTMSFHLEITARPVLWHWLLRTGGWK
Kind of assay: SPR Carterra LSA.

The target of assay [8] is T1, CD64 FcRγI. Kind of assay: SPR Carterra LSA.
In assay [9] the target is T7, Recombinant CD20 (ACROBiosystems Cat #CD0-H52H3) (UniProt P11836 1-297).
T7 construct: also called monovalent CD20
T7 sequence: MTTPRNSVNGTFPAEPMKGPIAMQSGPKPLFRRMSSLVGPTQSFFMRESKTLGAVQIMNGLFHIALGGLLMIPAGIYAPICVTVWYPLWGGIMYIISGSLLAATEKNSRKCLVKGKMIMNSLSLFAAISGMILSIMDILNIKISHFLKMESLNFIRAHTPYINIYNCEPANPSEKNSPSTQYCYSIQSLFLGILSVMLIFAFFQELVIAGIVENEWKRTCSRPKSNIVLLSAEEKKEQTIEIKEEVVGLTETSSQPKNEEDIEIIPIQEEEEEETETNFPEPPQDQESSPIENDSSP
Kind of assay: SPR Carterra LSA.

For assay [10], the target named is T4, CD32a 131R FcRγIIa. Kind of assay: SPR Carterra LSA.
Assay [11] deals with T5, CD16a 158V FcRγIIIa. Kind of assay: SPR Carterra LSA.
For assay [12], the target named is T8, CD19 (Table 9) (UniProt P15391 20-291).
T8 sequence (looked up): T6 sequence

Where a chain is given by its changes, count along the chain named.

T1 sequence (P12314 16-288 limits assumed): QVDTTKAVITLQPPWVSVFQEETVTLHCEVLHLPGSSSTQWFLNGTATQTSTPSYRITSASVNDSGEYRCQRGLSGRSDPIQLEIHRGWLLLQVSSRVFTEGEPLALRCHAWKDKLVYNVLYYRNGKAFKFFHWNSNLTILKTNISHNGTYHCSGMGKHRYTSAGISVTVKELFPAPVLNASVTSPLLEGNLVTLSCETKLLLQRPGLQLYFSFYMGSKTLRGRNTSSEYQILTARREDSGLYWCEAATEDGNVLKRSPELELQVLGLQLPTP
Sequence of CD16b FcRγIIIb (O75015 20-208 limits assumed): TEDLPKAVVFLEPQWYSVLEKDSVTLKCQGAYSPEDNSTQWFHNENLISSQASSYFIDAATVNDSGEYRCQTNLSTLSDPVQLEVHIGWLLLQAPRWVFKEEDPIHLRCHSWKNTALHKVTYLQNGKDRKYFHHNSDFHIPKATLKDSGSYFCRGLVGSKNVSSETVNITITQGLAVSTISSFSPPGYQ

B1: Rituxan (antibody)
VH: not shown
VL: QIVLSQSPAILSASPGEKVTMTCRASSSVSYIHWFQQKPGSSPKPWIYATSNLASGVPVRFSGSGSGTSYSLTISRVEAEDAATYYCQQWTSNPPTFGGGTKLEIKRTVAAPSVFIFPPSDEQLKSGTASVVCLLNNFYPREAKVQWKVDNALQSGNSQESVTEQDSKDSTYSLSSTLTLSKADYEKHKVYACEVTHQGLSSPVTKSFNRGEC
For B1, the equilibrium dissociation constant (Kd) amounted to 0.0528 µM in assay [1]; 0.892 µM in assay [2]; 1.52 µM in assay [3]; 1.25 µM in [4]; 0.715 µM in assay [5]; 1.53 µM in assay [6].

B2: HB1905 (bispecific antibody, human IgG1, kappa)
light 1: DIQMTQTTSSLSASLGDRVTISCRASQDISKYLNWYQEKPDGTVKLLIYHTSRLHSGVPSRFSGSGSGTDYSLTISNLEQEDIATYFCQQGNTLPYTFGGGTKLEIKRTVAAPSVFIFPPSDEQLKSGTASVKCLLNNFYPREAKVQWKVDNALQSGNSQESVTEQDSKDSTYSLSSTLTLSKADYEKHKVYACEVTHQGLSSPVTKSFNRGEC
heavy 1: EVKLQESGPGLVAPSQSLSVTCTVSGVSLPDYGVSWIRKPPRKGLEWLGVIWGSETTYYNSALKSRLTIIKDNSKSQVFLKMSSLQTDDTAIYYCAKHYYYGGSYAMDYWGQGTSVTVSSASTKGPSVFPLAPSSKSTSGGTAALGCLVKDYFPEPVTVSWNSGALTSGVHTFPAVLQSSGLYSLESVVTVPSSSLGTQTYICNVNHKPSNTKVDKKVEPKSCTDWSPYADQSIKVRISLKSALGDKAYEWNDNEMYLFRSSVAYAMRQYFLKVKNQMILFGEEDVRVANLKPRISFNFFVTAPKNVSDIIPRTEVEKAIRMSRSRINDAFRLNDNSLEFLGIQPTLGPPNQPPVSTSTSPTRSMAPGAVHLPQPVSTRDKTHTCPPCPAPELLGGPSVFLFPPKPKDTLMISRTPEVTCVVVDVSHEDPEVKFNWYVDGVEVHNAKTKPREEQYNSTYRVVSVLTVLHQDWLNGKEYKCKVSNKALPAPIEKTISKAKGQPREPQVCTLPPSRDELTKNQVSLSCAVKGFYPSDIAVEWESNGQPENNYKTTPPVLDSDGSFFLVSKLTVDKSRWQQGNVFSCSVMHEALHNRFTQKSLSLSPG
light 2: QVQLQQPGAELVKPGASVKMSCKASGYTFTSYNMHWVKKTPGRGLEWIGAIYPGNGDTSYNQKFKGKATLTADKSSSTAYMQLSSLTSEDSAVYYCARSTYYGGDWYFNVWGAGTLVTVSSASVAAPSVFIFPPSDEQLKSGTASVECLLNNFYPREAKVQWKVDNALQSGNSQESVTEQDSKDSTYSLSSTLTLSKADYEKHKVYACEVTHQGLSSPVTKSFNRGEC
heavy 2: not shown
notes: also called anti-CD20/anti-CD19 bispecific GEM-DIMER
Take B2: the binding result in assay [7], in [8], in [9], in assay [10] and in [11] was “binds” each time.

B3: HB1906 (bispecific antibody, human IgG1, kappa)
light 1: B2 light 1
heavy 1: B2 heavy 1
light 2: B2 light 2 with K39E
heavy 2: not shown
notes: as for B2
B3: the binding result in assay [7], in assay [8], in assay [9], in [10] and in [11] was “binds” in each case.

B4: B19c66 (antibody, human IgG1, kappa)
light: not shown
heavy: not shown
chain: CPPCPAPELLGGPSVFLFPPKPKDTLMISRTPEVTCVVVDVSHEDPEVKFNWYVDGVEVHNAKTKPREEQYNSTYRVVSVLTVLHQDWLNGKEYKCKVSNKALPAPIEKTISKAKGQPREPQVYVYPPSRDELTKNQVSLTCLVKGFYPSDIAVEWESNGQPENNYKTTPPVLDSDGSFALVSKLTVDKSRWQQGNVFSCSVMHEALHNHYTQKSLSLSPGK
The molecule B4 registered a Kd in assay [12] of 0.0218 µM.

B5: B19c66AAC9 (antibody, human IgG1, kappa)
light: not shown
heavy: QVQLQQSGAELVRPGSSVKISCKASGYAFSSYWMNWVKQRPGQGLEWIGQIWPGDGDTNYNGKFKGKATLTADESSSTAYMQLSSLASEDSAVYFCARRETTTVGRYYYAMDYWGQGTTVTVSSASTKGPSVFPLAPSSKSTSGGTAALGCLVKDYFPEPVTVSWNSGALTSGVHTFPAVLQSSGLYSLSSVVTVPSSSLGTQTYICNVNHKPSNTKVDKKVEPKSCDKTHTCPPCPAPKRRGGPSVFLFPPKPKDTLMISRTPEVTCVVVDVSHEDPEVKFNWYVDGVEVHNAKTKPREEQYNSTYRVVSVLTVLHQDWLNGKEYKCKVSNKALPAPIEKTISKAKGQPREPQVYVLPPSRDELTKNQVSLLCLVKGFYPSDIAVEWESNGQPENNYLTWPPVLDSDGSFFLYSKLTVDKSRWQQGNVFSCSVMHEALHNHYTQKSLSLSPGK
chain: B4 chain with L9D, L10E
B5 showed a Kd in assay [12] of 0.021 µM.
